Earlier results as cited in paper PMC3416887.
pKd: −log10 of the molar value.

Molecular target: FibP (Homo sapiens) (UniProt P02679)

Question: With thrombin (from UniProt P00734) as the substance, how does the pKd read?
Answer: 6.20
